In PMC3689846 one finds Kd data, which are given here for 2 molecules.

Experiment [1] has as its target Core.BaL-GT1 (germline-targeting variant of core gp120) (HIV-1 strain BaL (from the name)). Description: SPR. Background: In SPR one partner is held on a chip, and binding of the other changes the refractive index at the surface.
The target of experiment [2] is eOD-GT1 (HIV-1 strain HxB2). Description: SPR.

B1: 12A12 (mature) (antibody, V domains shown)
VH: SQHLVQSGTQVKKPGASVRISCQASGYSFTDYVLHWWRQAPGQGLEWMGWIKPVYGARNYARRFQGRINFDRDIYREIAFMDLSGLRSDDTALYFCARDGSGDDTSWHLDPWGQGTLVIVSA
VL: DIQMTQSPSSLSASVGDRVTITCQAGQGIGSSLQWYQQKPGKAPKLLVHGASNLHRGVPSRFSGSGFHTTFSLTISGLQRDDFATYFCAVLEFFGPGTKVEIK
As usually defined, the Kd is the concentration at which binding is half-saturated. Lower therefore signals a tighter complex. Take B1: in experiment [1], the Kd is 1 nM.

B2: NIH45-46 (mature) (antibody, V domains shown)
VH: QVRLSQSGGQMKKPGESMRLSCRASGYEFLNCPINWIRLAPGRRPEWMGWLKPRGGAVNYARKFQGRVTMTRDVYSDTAFLELRSLTSDDTAVYFCTRGKYCTARDYYNWDFEHWGRGAPVTVSS
VL: EIVLTQSPATLSLSPGETAIISCRTSQSGSLAWYQQRPGQAPRLVIYSGSTRAAGIPDRFSGSRWGADYNLSISNLESGDFGVYYCQQYEFFGQGTKVQVD
Consider B2, for which the dissociation constant (Kd) in experiment [2] is 3 nM.
